In PMC5663973 one finds stoichiometry N data, which are given here for one substance.

In the assay the target is DHR2 domain of human DOCK5 (residues I1212-L1642) (human). Kind of assay: SEC-SAXS; unbound DOCK5^DHR2 at 80 μM; BioSEC-3 column; 20 mM Tris pH 8.0, 150 mM NaCl, 0.5 mM EDTA; 295 K. On the technique in general: In gel filtration, larger molecules generally elute earlier.

Broadly, the stoichiometry N is the number of molecules, sites or subunits per partner or assembly. For the substance “DHR2 domain of human DOCK5 (residues I1212-L1642) (domain or fragment)”, the stoichiometry N was 2.
